The record followed here is paper PMC11441684, “A suboptimal OCT4-SOX2 binding site facilitates the naïve-state specific function of a Klf4 enhancer”.

One series addresses OCT4;SOX2 (human;human, UniProt Q01860;P48431 1-360;1-317, |). The experiment in a line: EMSA; 19 nM OCT4, 16 nM SOX2; high occupancy; 12.5 mM K-Hepes pH 7.6, 50 mM NaCl, 1 mM MgCl2, 10% glycerol, 0.1% NP-40, 0.1 mg/mL BSA, 1 mM DTT, 1 ug/uL poly dG:dC, 2 nM probe, 30 C 15 min; 4% acrylamide gel, 0.5X TGE. The settings on record: protein: recombinant;recombinant; tags: 6xHis (pSKB3-6H-TEV);6xHis (pSKB3-6H-TEV); copies: 1;1; label: Cy5 on strand 2 (extended primer S1); blunt. A general note: Mobility shift assays separate free from complexed probe on a gel.

A further series has as its target OCT4 (human, UniProt Q01860 1-360). Put plainly: EMSA; 19 nM OCT4; OCT4-only band is the majority of shifted DNA in the OCT4 + SOX2 reaction; 12.5 mM K-Hepes pH 7.6, 50 mM NaCl, 1 mM MgCl2, 10% glycerol, 0.1% NP-40, 0.1 mg/mL BSA, 1 mM DTT, 1 ug/uL poly dG:dC, 2 nM probe, 30 C 15 min; 4% acrylamide gel, 0.5X TGE. The settings on record: protein: recombinant; tags: 6xHis (pSKB3-6H-TEV); label: Cy5 on strand 2 (extended primer S1); blunt.

Where a chain is given by its changes, count along the chain named.

OCT4;SOX2, sequence (Q01860 whole entry, chain 1 of 2): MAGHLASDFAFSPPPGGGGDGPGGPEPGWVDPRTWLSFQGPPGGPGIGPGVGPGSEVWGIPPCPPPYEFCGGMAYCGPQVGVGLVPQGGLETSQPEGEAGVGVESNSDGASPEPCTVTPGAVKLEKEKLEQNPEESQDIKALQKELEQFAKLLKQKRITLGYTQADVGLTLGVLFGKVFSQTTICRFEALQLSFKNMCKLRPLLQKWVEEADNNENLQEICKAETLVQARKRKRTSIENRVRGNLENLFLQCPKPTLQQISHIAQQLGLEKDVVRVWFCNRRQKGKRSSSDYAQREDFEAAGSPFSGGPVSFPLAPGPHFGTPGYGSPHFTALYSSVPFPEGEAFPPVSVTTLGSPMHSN
OCT4;SOX2, sequence (P48431 whole entry, chain 2 of 2): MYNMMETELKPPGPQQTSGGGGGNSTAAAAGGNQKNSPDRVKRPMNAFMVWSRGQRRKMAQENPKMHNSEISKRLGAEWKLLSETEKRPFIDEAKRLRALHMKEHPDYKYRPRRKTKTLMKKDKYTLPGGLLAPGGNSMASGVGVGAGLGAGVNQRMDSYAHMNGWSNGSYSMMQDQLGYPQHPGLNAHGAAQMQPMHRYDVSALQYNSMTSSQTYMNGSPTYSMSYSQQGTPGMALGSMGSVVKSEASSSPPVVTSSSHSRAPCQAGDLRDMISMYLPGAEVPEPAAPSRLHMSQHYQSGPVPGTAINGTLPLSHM
OCT4, sequence (Q01860 whole entry): as the sequence (Q01860 whole entry, chain 1 of 2) above

B1: Nanog OS site probe (dsDNA)
DNA 1: GTTACTCTGCAGCTACTTTTGCATTACAATGGCCTTGGTGAGACTGG
DNA 2: CCAGTCTCACCAAGGCCATTGTAATGCAAAAGTAGCTGCAGAGTAAC
For the molecule B1, the binding result with OCT4;SOX2 is “binds”.

B2: Klf4-E1 OS site probe (dsDNA)
DNA 1: B1 DNA 1 with T17C, T25A, A26T, T30A, G31T
DNA 2: B1 DNA 2 with C17A, A18T, T22A, A23T, A31G
Turning to B2, the binding result with OCT4 is “binds”.
